Test [1] has as its target T1, human calcitonin receptor (human, UniProt P30988 25-474).
T1 construct: whole, on cells; also called hCTR; hCT
T1 sequence (looked up): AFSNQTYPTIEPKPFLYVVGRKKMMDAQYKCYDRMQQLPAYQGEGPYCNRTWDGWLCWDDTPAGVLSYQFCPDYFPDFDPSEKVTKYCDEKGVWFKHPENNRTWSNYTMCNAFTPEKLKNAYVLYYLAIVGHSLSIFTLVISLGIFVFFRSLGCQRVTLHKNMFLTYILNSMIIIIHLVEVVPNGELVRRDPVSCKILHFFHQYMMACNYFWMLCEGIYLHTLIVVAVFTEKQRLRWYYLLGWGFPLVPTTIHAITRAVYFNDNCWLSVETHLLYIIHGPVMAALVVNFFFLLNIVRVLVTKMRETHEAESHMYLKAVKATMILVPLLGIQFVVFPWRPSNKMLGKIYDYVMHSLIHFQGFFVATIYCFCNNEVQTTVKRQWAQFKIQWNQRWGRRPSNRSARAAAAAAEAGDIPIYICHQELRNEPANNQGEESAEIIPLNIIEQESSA
Nature of the test: ratio of IC50 at human calcitonin receptor to IC50 at human amylin receptor (SPA competition assays). Summed up: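 Scintillation proximity competition binding on cell membranes at 35 ng/μL with SPA beads, in 50 mM Hepes pH 7.4, 1 mM CaCl2, 5 mM MgCl₂, 0.1% OA, 0.02% Tween20. Incubated 120 min at 25° C with shaking. IC₅₀ from one-site competition fit.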

The target of test [2] is T1, human calcitonin receptor. Nature of the test: SPA radioligand competition (125I-calcitonin), membranes of BHK cells with human calcitonin receptor. Summed up:
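BHK hCTR membranes 35 ng/μL + SPA beads 0.05 mg/well; buffer 50 mM Hepes pH 7.4, 1 mM CaCl2, 5 mM MgCl₂, 0.1% OA, 0.02% Tween20. 120 min, 25° C., shaking. Scintillation count; IC50 by one-site binding competition.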
(In general: Loss of bound radioactivity is the signal in a displacement assay; it reports binding, not function.)

Numbered stars: 1 amine (or outer) side, 2 acyl side, 3 side chain; on linkers, the order of the positions; unused ones are H or OH. Bridge positions count the residues as written; N and C are the ends. Side chains are listed from the residue outwards. Ends that are not written are not given here. * marks the point of attachment. C20 diacid = O=C(O)CCCCCCCCCCCCCCCCCCC(=O)*; γGlu = O=C(O)[C@H](CCC(=O)[*:2])N[*:1]

B1: N^ε1-[(4S)-4-carboxy-4-[[(4S)-4-carboxy-4-(19-carboxynonadecanoylamino)butanoyl]amino]butanoyl]-[Glu14,Arg17,Pro21,Pro27,His34]-h-amylin (peptide)
peptide: K([γGlu-γGlu-C20 diacid])CNTATCATQRLAEFLRHSSPNFGAIPSSTNVGHNTY-NH2
modifications: disulfide 2-7; N-terminus assumed
SMILES: CC[C@H](C)[C@H](NC(=O)[C@H](C)NC(=O)CNC(=O)[C@H](Cc1ccccc1)NC(=O)[C@H](CC(N)=O)NC(=O)[C@@H]1CCCN1C(=O)[C@H](CO)NC(=O)[C@H](CO)NC(=O)[C@H](Cc1c[nH]cn1)NC(=O)[C@H](CCCNC(=N)N)NC(=O)[C@H](CC(C)C)NC(=O)[C@H](Cc1ccccc1)NC(=O)[C@H](CCC(=O)O)NC(=O)[C@H](C)NC(=O)[C@H](CC(C)C)NC(=O)[C@H](CCCNC(=N)N)NC(=O)[C@H](CCC(N)=O)NC(=O)[C@@H](NC(=O)[C@H](C)NC(=O)[C@@H]1CSSC[C@H](NC(=O)[C@@H](N)CCCCNC(=O)CC[C@H](NC(=O)CC[C@H](NC(=O)CCCCCCCCCCCCCCCCCCC(=O)O)C(=O)O)C(=O)O)C(=O)N[C@@H](CC(N)=O)C(=O)N[C@@H]([C@@H](C)O)C(=O)N[C@@H](C)C(=O)N[C@@H]([C@@H](C)O)C(=O)N1)[C@@H](C)O)C(=O)N1CCC[C@H]1C(=O)N[C@@H](CO)C(=O)N[C@@H](CO)C(=O)N[C@H](C(=O)N[C@@H](CC(N)=O)C(=O)N[C@H](C(=O)NCC(=O)N[C@@H](Cc1c[nH]cn1)C(=O)N[C@@H](CC(N)=O)C(=O)N[C@H](C(=O)N[C@@H](Cc1ccc(O)cc1)C(N)=O)[C@@H](C)O)C(C)C)[C@@H](C)O
notes: also called compound 87
Take B1: the “Ratio hCT/hAmylin binding” value in test [1] is 35.6. Moreover, the half-inhibitory concentration (IC50) (commonly the point on the concentration scale where inhibition reaches its midpoint) in test [2] was 22.5 nM.

B2: N^ε1-[(4S)-4-carboxy-4-[[(4S)-4-carboxy-4-(19-carboxynonadecanoylamino)butanoyl]amino]butanoyl]-[His14,Arg17,Pro21,Pro27]-h-amylin (peptide)
peptide: K([γGlu-γGlu-C20 diacid])CNTATCATQRLAHFLRHSSPNFGAIPSSTNVGSNTY-NH2
modifications: disulfide 2-7; N-terminus assumed
SMILES: CC[C@H](C)[C@H](NC(=O)[C@H](C)NC(=O)CNC(=O)[C@H](Cc1ccccc1)NC(=O)[C@H](CC(N)=O)NC(=O)[C@@H]1CCCN1C(=O)[C@H](CO)NC(=O)[C@H](CO)NC(=O)[C@H](Cc1c[nH]cn1)NC(=O)[C@H](CCCNC(=N)N)NC(=O)[C@H](CC(C)C)NC(=O)[C@H](Cc1ccccc1)NC(=O)[C@H](Cc1c[nH]cn1)NC(=O)[C@H](C)NC(=O)[C@H](CC(C)C)NC(=O)[C@H](CCCNC(=N)N)NC(=O)[C@H](CCC(N)=O)NC(=O)[C@@H](NC(=O)[C@H](C)NC(=O)[C@@H]1CSSC[C@H](NC(=O)[C@@H](N)CCCCNC(=O)CC[C@H](NC(=O)CC[C@H](NC(=O)CCCCCCCCCCCCCCCCCCC(=O)O)C(=O)O)C(=O)O)C(=O)N[C@@H](CC(N)=O)C(=O)N[C@@H]([C@@H](C)O)C(=O)N[C@@H](C)C(=O)N[C@@H]([C@@H](C)O)C(=O)N1)[C@@H](C)O)C(=O)N1CCC[C@H]1C(=O)N[C@@H](CO)C(=O)N[C@@H](CO)C(=O)N[C@H](C(=O)N[C@@H](CC(N)=O)C(=O)N[C@H](C(=O)NCC(=O)N[C@@H](CO)C(=O)N[C@@H](CC(N)=O)C(=O)N[C@H](C(=O)N[C@@H](Cc1ccc(O)cc1)C(N)=O)[C@@H](C)O)C(C)C)[C@@H](C)O
notes: also called compound 92
Take B2: the “Ratio hCT/hAmylin binding” value in test [1] came out at 145. Moreover, the IC50 in test [2] amounted to 26 nM.

On to K([γGlu-γGlu-C20 diacid])CNTATCATQRLAEFLRHSSPNFGAILSSTPVGPETY-NH2 (disulfide 2-7), for which the “Ratio hCT/hAmylin binding” value in test [1] was 22.6. In addition, the 50% inhibitory concentration (IC50) in test [2] amounted to 1.56 nM.

B3: N^ε1-[(4S)-4-carboxy-4-[[(4S)-4-carboxy-4-(19-carboxynonadecanoylamino)butanoyl]amino]butanoyl]-[Glu14,Arg17,Pro21,Pro27,Pro34,Arg35]-h-amylin (peptide)
peptide: K([γGlu-γGlu-C20 diacid])CNTATCATQRLAEFLRHSSPNFGAIPSSTNVGPRTY-NH2
modifications: disulfide 2-7; N-terminus assumed
SMILES: CC[C@H](C)[C@H](NC(=O)[C@H](C)NC(=O)CNC(=O)[C@H](Cc1ccccc1)NC(=O)[C@H](CC(N)=O)NC(=O)[C@@H]1CCCN1C(=O)[C@H](CO)NC(=O)[C@H](CO)NC(=O)[C@H](Cc1c[nH]cn1)NC(=O)[C@H](CCCNC(=N)N)NC(=O)[C@H](CC(C)C)NC(=O)[C@H](Cc1ccccc1)NC(=O)[C@H](CCC(=O)O)NC(=O)[C@H](C)NC(=O)[C@H](CC(C)C)NC(=O)[C@H](CCCNC(=N)N)NC(=O)[C@H](CCC(N)=O)NC(=O)[C@@H](NC(=O)[C@H](C)NC(=O)[C@@H]1CSSC[C@H](NC(=O)[C@@H](N)CCCCNC(=O)CC[C@H](NC(=O)CC[C@H](NC(=O)CCCCCCCCCCCCCCCCCCC(=O)O)C(=O)O)C(=O)O)C(=O)N[C@@H](CC(N)=O)C(=O)N[C@@H]([C@@H](C)O)C(=O)N[C@@H](C)C(=O)N[C@@H]([C@@H](C)O)C(=O)N1)[C@@H](C)O)C(=O)N1CCC[C@H]1C(=O)N[C@@H](CO)C(=O)N[C@@H](CO)C(=O)N[C@H](C(=O)N[C@@H](CC(N)=O)C(=O)N[C@H](C(=O)NCC(=O)N1CCC[C@H]1C(=O)N[C@@H](CCCNC(=N)N)C(=O)N[C@H](C(=O)N[C@@H](Cc1ccc(O)cc1)C(N)=O)[C@@H](C)O)C(C)C)[C@@H](C)O
notes: also called compound 110
Consider B3, for which the “Ratio hCT/hAmylin binding” value in test [1] is 53.6. For the same molecule, in test [2], the IC50 came out at 17.5 nM.

B4: N^ε1-[(4S)-4-carboxy-4-[[(4S)-4-carboxy-4-(19-carboxynonadecanoylamino)butanoyl]amino]butanoyl]-[Glu14,Arg17,Pro21,Pro27,Pro34,Glu35]-h-amylin (peptide)
peptide: K([γGlu-γGlu-C20 diacid])CNTATCATQRLAEFLRHSSPNFGAIPSSTNVGPETY-NH2
modifications: disulfide 2-7; N-terminus assumed
SMILES: CC[C@H](C)[C@H](NC(=O)[C@H](C)NC(=O)CNC(=O)[C@H](Cc1ccccc1)NC(=O)[C@H](CC(N)=O)NC(=O)[C@@H]1CCCN1C(=O)[C@H](CO)NC(=O)[C@H](CO)NC(=O)[C@H](Cc1c[nH]cn1)NC(=O)[C@H](CCCNC(=N)N)NC(=O)[C@H](CC(C)C)NC(=O)[C@H](Cc1ccccc1)NC(=O)[C@H](CCC(=O)O)NC(=O)[C@H](C)NC(=O)[C@H](CC(C)C)NC(=O)[C@H](CCCNC(=N)N)NC(=O)[C@H](CCC(N)=O)NC(=O)[C@@H](NC(=O)[C@H](C)NC(=O)[C@@H]1CSSC[C@H](NC(=O)[C@@H](N)CCCCNC(=O)CC[C@H](NC(=O)CC[C@H](NC(=O)CCCCCCCCCCCCCCCCCCC(=O)O)C(=O)O)C(=O)O)C(=O)N[C@@H](CC(N)=O)C(=O)N[C@@H]([C@@H](C)O)C(=O)N[C@@H](C)C(=O)N[C@@H]([C@@H](C)O)C(=O)N1)[C@@H](C)O)C(=O)N1CCC[C@H]1C(=O)N[C@@H](CO)C(=O)N[C@@H](CO)C(=O)N[C@H](C(=O)N[C@@H](CC(N)=O)C(=O)N[C@H](C(=O)NCC(=O)N1CCC[C@H]1C(=O)N[C@@H](CCC(=O)O)C(=O)N[C@H](C(=O)N[C@@H](Cc1ccc(O)cc1)C(N)=O)[C@@H](C)O)C(C)C)[C@@H](C)O
For B4, the “Ratio hCT/hAmylin binding” value in test [1] turned out to be 17.6. The IC50 in test [2] was 2.13 nM.

These data come from US20140087995A1 (published 2014).
